Patent US5981483A, “Compositions comprising modulators of cytokines of the TGF-β superfamily” (Mount Sinai Hospital Corporation, priority 1997, dated 1999)

Biological target: T1, BMP-2 (Homo sapiens, UniProt P12643)
T1 construct: Genetics Institute, Cambridge, Mass; (gift)
T1 sequence (P12643 283-396): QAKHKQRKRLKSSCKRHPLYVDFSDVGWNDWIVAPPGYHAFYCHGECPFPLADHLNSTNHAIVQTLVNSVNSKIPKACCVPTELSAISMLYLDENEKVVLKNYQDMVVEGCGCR
Assay: BIAcore surface plasmon resonance, binding to immobilized BMP-2
Conditions: Table 2 (calculations repeated); ligand BMP-2
Procedure: In this system, a purified protein serving as the ligand is covalently coupled to a carboxymethylated dextran surface, and binding molecules (i.e. the analyte) are passed in a fluid phase across the surface. Binding of the analyte to ligand causes a change in reflected light which is directly proportional to mass bound, and is measured in arbitrary response units (R.U.). Analyte-ligand binding is observed as both increasing response with time during the injection of analyte, and the difference in the position of the baseline before and after injection.
Schuster, R. V. Swanson, L. A. Alex, R. B. Bourret, M. I. Simon, Nature 365, 343 (1993). 1000 R.U. equals approximately 1 ng/mm^2. The running buffer was 20 mM Hepes (pH 7.2), 150 mM NaCl and the flow rate for all sensorgrams was 3 μl/min.
Regeneration of the surface to remove bound analyte was done by injection of 10 μl of 20 mM NaOH. To cyclize TRH1 peptides, the material was reduced with 5 mM DTT then brought to a final concentration of 60 μM in 25 mM ammonium acetate (pH 8.5). […]
Data was analyzed using the BIA-evaluation software (Pharmacia Biosensor). The association rate constant, kass, was calculated by first plotting the change in response with time versus response (i.e. dR/dT vs R). […] The affinity constants were calculated from KD =kdiss /kass. […]

B1: h-Fetuin: adult human fetuin/α2-HS glycoprotein (Calbiochem) (protein)
chain: APHGPGLIYRQPNCDDPETEEAALVAIDYINQNLPWGYKHTLNQIDEVKVWPQQPSGELFEIEIDTLETTCHVLDPTPVARCSVRQLKEHAVEGDCDFQLLKLDGKFSVVYAKCDSSPDSAEDVRKVCQDCPLLAPLNDTRVVHAAKAALAAFNAQNNGSNFQLEEISRAQLVPLPPSTYVEFTVSGTDCVAKEATEAAKCNLLAEKQYGFCKATLSEKLGGAEVAVTCMVFQTQPVSSQPQPEGANEAVPTPVVDPDAPPSPPLGAPGLPPAGSPPDSHVLLAAPPGHQLHRAHYDLRHTFMGVVSLGSPSGEVSHPRKTRTVVQPSVGAAAGPVVPPCPGRIRHFKV
- kass: 22000 ± 5000 M⁻¹ s⁻¹
